Positions count from the first letter of the chain named. Names may count otherwise.
B1: extracellular domain of ZIP4 from Pteropus alecto (black fruit bat), wild type (domain or fragment)
chain: SGQGALDRVALGGLLNTLAARVHCTSGPCGKCLSVDDLLALGRPEEPGHLARLSAAAALYLSDPEGTCEDIRAGRWASRADHLLALLEGPKALAPGLSRLLQRIQAQTTGQPSAGEACVDPPQLLREAGVAGAPGSPGPVLATLLEHVGRGSCFHTLPTPQYFVDFVFQQSHGNTPNISVAELAALMQRLGVGGVTETHSDHHHQEKRVNRQGPTPLTAPNSSSDTWDTVCLSARDVMAVYGLSEQTGVTPEAWAQLSPALLQQQLSGACSPQPSHPAQNQLSQAEK
B2: pZIP4-ECD R87C variant (domain or fragment)
chain: B1 chain with R52C
B3: pZIP4-ECD P193L variant (domain or fragment)
chain: B1 chain with P158L
B4: pZIP4-ECD C64R variant (domain or fragment)
chain: B1 chain with C29R
B5: pZIP4-ECD Q299H variant (domain or fragment)
chain: B1 chain with Q264H
B6: pZIP4-ECD A91T variant (domain or fragment)
chain: B1 chain with A56T

Molecular target: the molecule itself
Experiment: SEC

Protein | stoichiometry N
B1 | 2
B2 | 2
B3 | 2
B4 | 2
B5 | 2
B6 | 2

Source: doi:10.1101/2020.08.16.253294 (bioRxiv, 2020)
